These results are taken from patent US20100040602A1 (RIBOVAX BIOTECHNOLOGIES, published 2010).

The target of test [1] is T1, CG3 antigen (recombinant interstrain fusion of gB Antigenic Domain 2 from hCMV strains AD169 and Towne) (human cytomegalovirus strain AD169; …).
T1 construct: Commercial antigen (Biotest AG, cod. 807035); also called gB (AD2) antigen
T1 chain: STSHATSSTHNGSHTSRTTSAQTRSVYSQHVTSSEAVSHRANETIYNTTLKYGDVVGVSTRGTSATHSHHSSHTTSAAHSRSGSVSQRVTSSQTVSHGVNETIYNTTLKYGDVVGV
Description: ELISA, CG3 antigen (gB AD2), cell culture supernatant. Background: An ELISA detects its analyte on a solid surface through an enzyme-linked reagent.

The target in test [2] is T2, gH(Ag)-GST fusion protein (gH amino terminal region, amino acids 16-144, hCMV strain VR1814, fused in frame … (human cytomegalovirus strain VR1814, UniProt P12824 16-144)).
T2 construct: also called gH antigen; not shown: Glutathione-S-Transferase (GST)
T2 chain: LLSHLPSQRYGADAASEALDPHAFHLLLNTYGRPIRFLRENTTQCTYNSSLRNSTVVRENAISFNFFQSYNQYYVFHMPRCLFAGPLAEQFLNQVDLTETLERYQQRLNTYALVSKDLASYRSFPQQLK
In words: ELISA, plate-coated gH(Ag)-GST, cell culture supernatant, anti-human IgG-HRP.

B1: 26A1 antibody (natural human IgG1 secreted by the 26A1 subculture, tested as cell culture supernatant) (antibody, V domains shown)
VH: QVQLQESGPGLVKPSQTLSLICTVSGGSVSSGGDYWTWIRQHPGKGLEWLGYIHSSGNIFYNPSLKSRLTLSMDTSKNQFFLKLTSVTAADTAVYYCARVYHKDFVVVPGAFPFEFWFDPWGQGTLVTVSS
VL: SYVLTQPPSVSVAPGQTARIPCGGNEIGSKSVHWYQQKPGQAPVLVVHDDSDRPSGIPDRFSGSNSGNTATLTISRVEAGDEADYYCQVWDSGSDHHVVFGGGTKLTVLG
notes: It is a human IgG1; also called 26A1 IgG; IgG1 produced by 26A1 culture
For the molecule B1, the binding result in test [1] and in test [2] was “no binding” each time.
